Results from patent US20220048967A1 (published 2022).
Numbered stars: 1 amine (or outer) side, 2 acyl side, 3 side chain; on linkers, the order of the positions; unused ones are H or OH. Square brackets hold non-standard residues; d marks the D form. Side chains are listed from the residue outwards. Ends that are not written are not given here. * marks the point of attachment. C18 diacid = O=C(O)CCCCCCCCCCCCCCCCC(=O)*; γGlu = O=C(O)[C@H](CCC(=O)[*:2])N[*:1]; AEEA = NCCOCCOCC(=O)O; Aib = CC(C)(N)C(=O)O

T1: human gastric inhibitory peptide receptor (GIPR) (human, UniProt P48546 22-466)
T1 sequence (looked up): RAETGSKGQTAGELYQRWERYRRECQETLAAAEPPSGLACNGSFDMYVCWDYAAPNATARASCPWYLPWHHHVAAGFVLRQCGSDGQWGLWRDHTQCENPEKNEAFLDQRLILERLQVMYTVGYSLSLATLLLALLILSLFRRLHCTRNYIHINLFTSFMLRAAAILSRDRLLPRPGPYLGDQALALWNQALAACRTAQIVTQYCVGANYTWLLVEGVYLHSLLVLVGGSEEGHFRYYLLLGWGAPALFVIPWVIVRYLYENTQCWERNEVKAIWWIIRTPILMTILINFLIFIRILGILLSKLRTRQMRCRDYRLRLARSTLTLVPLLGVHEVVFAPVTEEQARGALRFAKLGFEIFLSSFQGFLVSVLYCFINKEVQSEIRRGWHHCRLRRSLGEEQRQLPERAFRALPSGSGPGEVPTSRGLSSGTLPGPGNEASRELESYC


Assays:
[1] = target: T1, human gastric inhibitory peptide …; test: cell-based or functional assay
[2] = target: human GLP-1 receptor (GLP-1R) (human, UniProt P43220 24-463); test: cell-based or functional assay

Row | hGIPR cAMP EC50 ratio [1] | hGIPR cAMP Rel EC50 [1] [nM] | hGLP1R cAMP EC50 ratio [2] | hGLP1R cAMP Rel EC50 [2] [nM] | Binder
1 | 0.825 | 0.257 | 0.828 | 0.0595 | Y[Aib]EGTFTSDYSILLDEK([AEEA-AEEA-γGlu-C18 diacid])AQ[Aib]AFIEYLIEGG-NH2 (N-terminus assumed; SMILES CC[C@H](C)[C@H](NC(=O)[C@H](CC(C)C)NC(=O)[C@H](Cc1ccc(O)cc1)NC(=O)[C@H](CCC(=O)O)NC(=O)[C@@H](NC(=O)[C@H](Cc1ccccc1)NC(=O)[C@H](C)NC(=O)C(C)(C)NC(=O)[C@H](CCC(N)=O)NC(=O)[C@H](C)NC(=O)[C@H](CCCCNC(=O)COCCOCCNC(=O)COCCOCCNC(=O)CC[C@H](NC(=O)CCCCCCCCCCCCCCCCC(=O)O)C(=O)O)NC(=O)[C@H](CCC(=O)O)NC(=O)[C@H](CC(=O)O)NC(=O)[C@H](CC(C)C)NC(=O)[C@H](CC(C)C)NC(=O)[C@@H](NC(=O)[C@H](CO)NC(=O)[C@H](Cc1ccc(O)cc1)NC(=O)[C@H](CC(=O)O)NC(=O)[C@H](CO)NC(=O)[C@@H](NC(=O)[C@H](Cc1ccccc1)NC(=O)[C@@H](NC(=O)CNC(=O)[C@H](CCC(=O)O)NC(=O)C(C)(C)NC(=O)[C@@H](N)Cc1ccc(O)cc1)[C@@H](C)O)[C@@H](C)O)[C@@H](C)CC)[C@@H](C)CC)C(=O)N[C@@H](CCC(=O)O)C(=O)NCC(=O)NCC(N)=O) [Example 269]
2 | 0.851 | 0.239 | 0.935 | 0.0572 | Y[Aib]EGTFTSDYSILLDEK([AEEA-AEEA-γGlu-C18 diacid])AQ[Aib]AFIEYLIEGGPSSG-NH2 (N-terminus assumed; SMILES CC[C@H](C)[C@H](NC(=O)[C@H](CC(C)C)NC(=O)[C@H](Cc1ccc(O)cc1)NC(=O)[C@H](CCC(=O)O)NC(=O)[C@@H](NC(=O)[C@H](Cc1ccccc1)NC(=O)[C@H](C)NC(=O)C(C)(C)NC(=O)[C@H](CCC(N)=O)NC(=O)[C@H](C)NC(=O)[C@H](CCCCNC(=O)COCCOCCNC(=O)COCCOCCNC(=O)CC[C@H](NC(=O)CCCCCCCCCCCCCCCCC(=O)O)C(=O)O)NC(=O)[C@H](CCC(=O)O)NC(=O)[C@H](CC(=O)O)NC(=O)[C@H](CC(C)C)NC(=O)[C@H](CC(C)C)NC(=O)[C@@H](NC(=O)[C@H](CO)NC(=O)[C@H](Cc1ccc(O)cc1)NC(=O)[C@H](CC(=O)O)NC(=O)[C@H](CO)NC(=O)[C@@H](NC(=O)[C@H](Cc1ccccc1)NC(=O)[C@@H](NC(=O)CNC(=O)[C@H](CCC(=O)O)NC(=O)C(C)(C)NC(=O)[C@@H](N)Cc1ccc(O)cc1)[C@@H](C)O)[C@@H](C)O)[C@@H](C)CC)[C@@H](C)CC)C(=O)N[C@@H](CCC(=O)O)C(=O)NCC(=O)NCC(=O)N1CCC[C@H]1C(=O)N[C@@H](CO)C(=O)N[C@@H](CO)C(=O)NCC(N)=O) [Example 268]
3 | 0.627 | 0.328 | 0.4 | 0.128 | Y[Aib]EGTFTSDYSILLDKK([AEEA-AEEA-γGlu-C18 diacid])AQ[Aib]EFIEYLIEGGPSSG-NH2 (N-terminus assumed; SMILES CC[C@H](C)[C@H](NC(=O)[C@H](CC(C)C)NC(=O)[C@H](Cc1ccc(O)cc1)NC(=O)[C@H](CCC(=O)O)NC(=O)[C@@H](NC(=O)[C@H](Cc1ccccc1)NC(=O)[C@H](CCC(=O)O)NC(=O)C(C)(C)NC(=O)[C@H](CCC(N)=O)NC(=O)[C@H](C)NC(=O)[C@H](CCCCNC(=O)COCCOCCNC(=O)COCCOCCNC(=O)CC[C@H](NC(=O)CCCCCCCCCCCCCCCCC(=O)O)C(=O)O)NC(=O)[C@H](CCCCN)NC(=O)[C@H](CC(=O)O)NC(=O)[C@H](CC(C)C)NC(=O)[C@H](CC(C)C)NC(=O)[C@@H](NC(=O)[C@H](CO)NC(=O)[C@H](Cc1ccc(O)cc1)NC(=O)[C@H](CC(=O)O)NC(=O)[C@H](CO)NC(=O)[C@@H](NC(=O)[C@H](Cc1ccccc1)NC(=O)[C@@H](NC(=O)CNC(=O)[C@H](CCC(=O)O)NC(=O)C(C)(C)NC(=O)[C@@H](N)Cc1ccc(O)cc1)[C@@H](C)O)[C@@H](C)O)[C@@H](C)CC)[C@@H](C)CC)C(=O)N[C@@H](CCC(=O)O)C(=O)NCC(=O)NCC(=O)N1CCC[C@H]1C(=O)N[C@@H](CO)C(=O)N[C@@H](CO)C(=O)NCC(N)=O) [Example 270]
4 | 1.5 | 0.108 | 0.974 | 0.054 | Y[Aib]EGTFTSDYSILLDKK([AEEA-AEEA-γGlu-C18 diacid])AQ[Aib]AFIEYLIEGG-NH2 (N-terminus assumed; SMILES CC[C@H](C)[C@H](NC(=O)[C@H](CC(C)C)NC(=O)[C@H](Cc1ccc(O)cc1)NC(=O)[C@H](CCC(=O)O)NC(=O)[C@@H](NC(=O)[C@H](Cc1ccccc1)NC(=O)[C@H](C)NC(=O)C(C)(C)NC(=O)[C@H](CCC(N)=O)NC(=O)[C@H](C)NC(=O)[C@H](CCCCNC(=O)COCCOCCNC(=O)COCCOCCNC(=O)CC[C@H](NC(=O)CCCCCCCCCCCCCCCCC(=O)O)C(=O)O)NC(=O)[C@H](CCCCN)NC(=O)[C@H](CC(=O)O)NC(=O)[C@H](CC(C)C)NC(=O)[C@H](CC(C)C)NC(=O)[C@@H](NC(=O)[C@H](CO)NC(=O)[C@H](Cc1ccc(O)cc1)NC(=O)[C@H](CC(=O)O)NC(=O)[C@H](CO)NC(=O)[C@@H](NC(=O)[C@H](Cc1ccccc1)NC(=O)[C@@H](NC(=O)CNC(=O)[C@H](CCC(=O)O)NC(=O)C(C)(C)NC(=O)[C@@H](N)Cc1ccc(O)cc1)[C@@H](C)O)[C@@H](C)O)[C@@H](C)CC)[C@@H](C)CC)C(=O)N[C@@H](CCC(=O)O)C(=O)NCC(=O)NCC(N)=O) [Example 267]
5 | 2.82 | 0.0442 | 0.627 | 0.0883 | Y[Aib]EGTFTSDYSILLDKK([AEEA-AEEA-γGlu-C18 diacid])AQ[Aib]AFIEYLIEGGPSSG-NH2 (N-terminus assumed; SMILES CC[C@H](C)[C@H](NC(=O)[C@H](CC(C)C)NC(=O)[C@H](Cc1ccc(O)cc1)NC(=O)[C@H](CCC(=O)O)NC(=O)[C@@H](NC(=O)[C@H](Cc1ccccc1)NC(=O)[C@H](C)NC(=O)C(C)(C)NC(=O)[C@H](CCC(N)=O)NC(=O)[C@H](C)NC(=O)[C@H](CCCCNC(=O)COCCOCCNC(=O)COCCOCCNC(=O)CC[C@H](NC(=O)CCCCCCCCCCCCCCCCC(=O)O)C(=O)O)NC(=O)[C@H](CCCCN)NC(=O)[C@H](CC(=O)O)NC(=O)[C@H](CC(C)C)NC(=O)[C@H](CC(C)C)NC(=O)[C@@H](NC(=O)[C@H](CO)NC(=O)[C@H](Cc1ccc(O)cc1)NC(=O)[C@H](CC(=O)O)NC(=O)[C@H](CO)NC(=O)[C@@H](NC(=O)[C@H](Cc1ccccc1)NC(=O)[C@@H](NC(=O)CNC(=O)[C@H](CCC(=O)O)NC(=O)C(C)(C)NC(=O)[C@@H](N)Cc1ccc(O)cc1)[C@@H](C)O)[C@@H](C)O)[C@@H](C)CC)[C@@H](C)CC)C(=O)N[C@@H](CCC(=O)O)C(=O)NCC(=O)NCC(=O)N1CCC[C@H]1C(=O)N[C@@H](CO)C(=O)N[C@@H](CO)C(=O)NCC(N)=O) [Example 266]
